Reference: paper PMC10322149 (2023)

Target: Shank3 (UniProt Q4ACU6 1-1730)
Assay: ITC

Sequence of Shank3 (Q4ACU6 whole entry): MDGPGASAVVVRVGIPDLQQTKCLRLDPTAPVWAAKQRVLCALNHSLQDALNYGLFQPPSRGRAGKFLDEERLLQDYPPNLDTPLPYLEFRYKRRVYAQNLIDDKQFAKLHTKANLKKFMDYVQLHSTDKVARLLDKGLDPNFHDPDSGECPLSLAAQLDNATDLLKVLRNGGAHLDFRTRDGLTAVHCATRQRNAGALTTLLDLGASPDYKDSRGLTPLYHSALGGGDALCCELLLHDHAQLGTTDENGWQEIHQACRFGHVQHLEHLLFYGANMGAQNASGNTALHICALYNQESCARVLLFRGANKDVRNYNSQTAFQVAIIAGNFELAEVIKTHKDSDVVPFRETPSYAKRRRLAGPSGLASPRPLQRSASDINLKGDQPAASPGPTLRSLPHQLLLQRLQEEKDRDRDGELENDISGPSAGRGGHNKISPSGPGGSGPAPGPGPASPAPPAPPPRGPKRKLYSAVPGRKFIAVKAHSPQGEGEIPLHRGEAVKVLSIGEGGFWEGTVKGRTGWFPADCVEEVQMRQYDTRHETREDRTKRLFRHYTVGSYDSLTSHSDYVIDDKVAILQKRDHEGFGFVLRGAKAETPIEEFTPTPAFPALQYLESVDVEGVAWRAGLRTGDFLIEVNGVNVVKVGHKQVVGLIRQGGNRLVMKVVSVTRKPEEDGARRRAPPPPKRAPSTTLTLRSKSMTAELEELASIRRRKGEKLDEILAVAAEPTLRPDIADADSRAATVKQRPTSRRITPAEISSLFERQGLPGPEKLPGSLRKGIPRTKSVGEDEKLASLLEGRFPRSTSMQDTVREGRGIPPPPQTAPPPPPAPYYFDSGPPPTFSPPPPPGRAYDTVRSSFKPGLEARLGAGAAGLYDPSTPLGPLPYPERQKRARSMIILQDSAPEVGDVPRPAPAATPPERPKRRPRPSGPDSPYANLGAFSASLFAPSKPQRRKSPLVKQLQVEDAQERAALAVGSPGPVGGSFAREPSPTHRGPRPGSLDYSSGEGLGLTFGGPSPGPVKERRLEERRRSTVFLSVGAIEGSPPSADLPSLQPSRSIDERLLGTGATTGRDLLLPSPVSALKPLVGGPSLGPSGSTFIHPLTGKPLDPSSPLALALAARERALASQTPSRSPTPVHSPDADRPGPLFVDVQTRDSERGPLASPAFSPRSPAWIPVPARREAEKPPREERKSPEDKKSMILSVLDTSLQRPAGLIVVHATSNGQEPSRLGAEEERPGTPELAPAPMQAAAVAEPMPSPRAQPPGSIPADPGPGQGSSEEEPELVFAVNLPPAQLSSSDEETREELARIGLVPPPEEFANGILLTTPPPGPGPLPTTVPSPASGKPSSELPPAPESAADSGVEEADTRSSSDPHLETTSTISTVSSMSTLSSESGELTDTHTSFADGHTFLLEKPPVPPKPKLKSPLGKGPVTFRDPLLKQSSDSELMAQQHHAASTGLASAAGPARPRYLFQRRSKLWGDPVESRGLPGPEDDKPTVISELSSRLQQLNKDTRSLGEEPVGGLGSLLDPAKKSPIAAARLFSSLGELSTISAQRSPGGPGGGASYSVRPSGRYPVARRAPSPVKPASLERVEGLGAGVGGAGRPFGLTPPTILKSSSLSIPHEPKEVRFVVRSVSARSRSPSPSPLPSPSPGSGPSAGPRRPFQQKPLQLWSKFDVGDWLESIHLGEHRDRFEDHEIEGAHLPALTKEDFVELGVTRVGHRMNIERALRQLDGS

Row | Kd [nM] | Binder
1 | 2400 | Homer1-R3E (natural protein) MGEQPIFSTRAHVFQIDPNTKKNWVPTSKHAVTVSYFYDSTENVYEIISLDGSKAIINSTITPNMTFTKTSQKFGQWADSEANTVYGLGFSSEHHLSKFAEKFQEFKEAARLAKEKSQEKMELTSTPSQESAGGDLQSPLTPESINGTDDERTPDVTQNSEPRAEPAQNALPFSHSAGDRTQGLSHASSAISKHWEAELATLKGNNAKLTAALLESTANVKQWKQQLAAYQEEAERLHKRVTELECVSSQANAVHSHKTELSQTVQELEETLKVKEEEIERLKQEIDNARELQEQRDSLTQKLQEVEIRNKDLEGQLSELEQRLEKSQSEQDAFRSNLKTLLEILDGKIFELTELRDNLAKLLECS
2 | 1000 | Homer1-WT (full-length Homer1) (natural protein) MGEQPIFSTRAHVFQIDPNTKKNWVPTSKHAVTVSYFYDSTRNVYRIISLDGSKAIINSTITPNMTFTKTSQKFGQWADSRANTVYGLGFSSEHHLSKFAEKFQEFKEAARLAKEKSQEKMELTSTPSQESAGGDLQSPLTPESINGTDDERTPDVTQNSEPRAEPAQNALPFSHSAGDRTQGLSHASSAISKHWEAELATLKGNNAKLTAALLESTANVKQWKQQLAAYQEEAERLHKRVTELECVSSQANAVHSHKTELSQTVQELEETLKVKEEEIERLKQEIDNARELQEQRDSLTQKLQEVEIRNKDLEGQLSELEQRLEKSQSEQDAFRSNLKTLLEILDGKIFELTELRDNLAKLLECS
